Data taken from patent US20260250325A1, “Antiviral Polypeptide Membrane Fusion Inhibitor, and Preparation Method and Application Thereof” (priority 2025, published 2026).
Where a SMILES comes first, the peptide text is derived from it. [ ]: non-standard residue; d: D form. The star is where a group is joined. ξ: configuration not given here. Succinyl(4-O-cholesteryl) = CC(C)CCC[C@@H](C)[C@H]1CC[C@H]2[C@@H]3CC=C4C[C@@H](OC(=O)CCC(=O)*)CC[C@]4(C)[C@H]3CC[C@]12C; ξD = NC(CC(=O)O)C(=O)O

What was measured:
RSV A2 virus strain [1] = experiment: Cotton rat RSV A2 challenge protection, lung nucleic acid load by RT-qPCR; format: in vivo; conditions: cotton rats; for Nucleic acid load RT-qPCR detection results Log10 mean (copy number/gram of lung tissue): tracheal nebulization 1 mg/kg QD for 5 days, lung collected 2 h after final administration on Day 4; for effect on viral titer in lung tissue (in words): tracheal nebulization once daily for 5 days
Source text: Female cotton rats were from Shanghai Yishang Biotechnology Co., Ltd. The RSV A2 virus strain was from the ATCC, with a catalog number VR-1540. RT-qPCR primer+probe primer were supplied by Qingke Biotechnology Co., Ltd, with batch number TSP20241227-025-00187. The RT-qPCR standard was provided by Vazyme, with batch number 20241008.
Female cotton rats (6-8 weeks old) were grouped based on body weight (n=5). All animals were intranasally challenged with RSV on Day 0 at a challenge dosage of […] pfu (50 μL) per animal. Administration began 1 h after Day 0 challenge; the polypeptide sample, positive control, and solvent control were administered via tracheal nebulization once daily for 5 consecutive days. Lung tissue was collected from all animals 2 h after the final administration on Day 4. Left lung tissue (including partial trachea) was rapidly frozen in a virus protection solution with a 10-fold volume and stored below −70° C.; and the viral titer was detected with RT-qPCR.
First, sample homogenization and lung tissue RNA extraction were performed, and the supernatant was taken from the tissue sample that was homogenized using a tissue homogenizer (maintaining a low-temperature environment). The approximately 100 μL of the homogenate supernatant was taken, and total tissue RNA was extracted by using a VeZol reagent-chloroform-water phase-magnetic bead method, and dissolved in RNase-free water. The RT-qPCR reaction system was prepared as follows: a one-step RT-qPCR reaction system was prepared by using an RNA template, a probe, a primer pair, an RT-qPCR buffer, and the RNase-free water; each sample was tested in duplicated wells, with each well containing 20 μL of the one-step RT-qPCR reaction system; a quantitative standard curve well (RSV A2 N gene full-length plasmid), a positive quality control well, and a negative quality control well were arranged at the same time. Then, amplification programs were set according to reverse transcription, pre-denaturation, and cyclic amplification, and amplification data was collected by using a real-time fluorescence quantification PCR instrument, and a mean CT value for duplicated wells was calculated. The CT value from the test results for each sample was substituted into a quantitative standard curve to calculate a copy number. A calculation formula for RSV viral load (copy number/gram of lung tissue) was: sample viral load (copy number/gram of lung tissue)=copy number/relative tissue input (g).
(§1) One hour after RSV A2 challenge in cotton rats, compounds 13, 14, 17, 19, 20, 21, 26, 27, 28, and 40 were administered via tracheal nebulization once daily for 5 consecutive days; and 2 h after the final administration, lung tissue was collected from all groups for viral titer detection, and results were shown in Table 4.

[2] = Cytotoxicity test in HEp-2 cells (CCK8 cell viability); format: cell-based; conditions: human; HEp-2 cells, CCK8, 1 day; read-out: CC50
How it was run: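 HEp-2 cells seeded at 30,000/well, cultured overnight at 37° C./5% CO2, then exposed to diluted compound for 1 day in 0.5% DMSO. Viability read by CCK8, normalised to untreated-cell and medium-only controls; CC50 from four-parameter variable-slope fit.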

RSV A2 virus strain [3] = experiment: Mouse RSV A2 challenge protection, lung viral titer by plaque method; format: in vivo, BALB/c mice; conditions: for Mean (PFU/g lung): BALB/c mice, tracheal nebulization 1 mg/kg QD for 5 days, lung collected 2 h after final administration on Day 4; for effect on viral titer in lung tissue (in words): mice, tracheal nebulization once daily for 5 days
Procedure: Female BALB/c mice were from Shanghai Yishang Biotechnology Co., Ltd. HEp- 2 were from the ATCC, with a catalog number CCL-23. The cells were cultured in a DMEM medium solution in which 10% (v/v) fetal bovine serum and 1% penicillin and streptomycin were added. The RSV A2 virus strain was from the ATCC, with a catalog number VR-1540.
Eight-week-old female BALB/c mice were grouped based on body weight (n=6). All animals were intranasally challenged with RSV on Day 0 at a challenge dosage of 1×10^6 pfu (20 μL) per animal. Administration began 1 h after Day 0 challenge; the polypeptide sample, positive control, and solvent control were administered via tracheal nebulization once daily for 5 consecutive days (see Table 3 below for administration dosage and administration frequency). Lung tissue was collected from all animals 2 h after the final administration on Day 4; left lung tissue was rapidly frozen in a virus protection solution with a 10-fold volume and stored below −70° C.; and a viral titer was detected by using a plaque method.
For analysis, the lung RSV A2 virus was determined by performing a tissue homogenate viral load plaque method. In short, on the day prior to sample detection, the HEp-2 cells were inoculated into a 12-well plate (spreading density being 0.3×10^6 cells/mL, with 1000 μL of cell suspension per well) according to a standard HEp-2 cell culture operation procedure. On the day of incubation, the supernatant was taken from the tissue sample that was homogenized using a tissue homogenizer (maintaining a low-temperature environment), and the supernatant was taken after centrifugation. The tissue homogenate sample was diluted with serum-free DMEM, and inoculated into a 12-well plate at a final volume of 400 μL. After 2 h of incubation, the homogenate supernatant was discarded, and 1.5 mL of a covering layer (cell culture medium containing 1% soft agar) was added to each well and cultured in the incubator for approximately 72 h. The covering layer was discarded, the cells were fixed, blocking was performed by using a blocking solution, dyeing was performed with HRP-RSVG, development and air drying were terminated with pure water. Colored spots on the well plate were counted by using a fluorescent (enzyme-linked) immunoassay spot analyzer, and the viral titer was expressed as a plaque-forming unit per gram of tissue (PFU/g). The viral titer was calculated as an arithmetic mean±standard error of all animals in a group.
as §1, with “mice,” for “cotton rats,”, “plaque” for “titer”, “3.” for “4.”

[4] = substrate: F protein of hMPV virus strain A2 (human metapneumovirus, strain A2); experiment: cell-based or functional assay
[5] = substrate: F protein of hMPV virus strain B1 (human metapneumovirus, strain B1); experiment: cell-based or functional assay
[6] = molecular target: T1, F protein of RSV A long virus strain (respiratory syncytial virus, RSV A long virus strain), P12568; experiment: cell-based or functional assay
T1 chain: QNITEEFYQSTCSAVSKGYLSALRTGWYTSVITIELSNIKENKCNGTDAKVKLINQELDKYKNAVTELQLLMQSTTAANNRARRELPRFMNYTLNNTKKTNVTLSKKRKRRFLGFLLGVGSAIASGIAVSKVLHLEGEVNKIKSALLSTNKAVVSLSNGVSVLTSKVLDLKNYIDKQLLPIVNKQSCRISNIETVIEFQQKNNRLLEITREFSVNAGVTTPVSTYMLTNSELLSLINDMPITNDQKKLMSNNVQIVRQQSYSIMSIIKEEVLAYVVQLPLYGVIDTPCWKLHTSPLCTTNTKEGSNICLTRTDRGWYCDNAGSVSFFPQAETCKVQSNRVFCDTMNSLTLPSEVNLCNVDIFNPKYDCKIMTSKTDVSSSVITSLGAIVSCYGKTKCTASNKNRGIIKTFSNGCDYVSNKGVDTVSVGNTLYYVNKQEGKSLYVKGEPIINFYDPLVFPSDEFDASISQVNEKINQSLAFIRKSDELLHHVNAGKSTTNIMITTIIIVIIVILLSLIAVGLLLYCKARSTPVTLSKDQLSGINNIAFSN

[7] = substrate: F protein of hPIV Type 3 (hPIV3 C243) (human parainfluenza virus type 3, strain C243); experiment: cell-based or functional assay
[8] = molecular target: hPIV-N51 (139-189) (human parainfluenza virus (hPIV))
Chain of hPIV-N51 (139-189) (human parainfluenza virus (hPIV)) (P06828 139-189): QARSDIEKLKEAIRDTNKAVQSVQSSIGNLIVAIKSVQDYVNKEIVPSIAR

Molecule | Nucleic acid load RT-qPCR detection results Log10 mean (copy number/gram of lung tissue) (RSV A2 virus strain [1]) | effect on viral titer in lung tissue (in words) (RSV A2 virus strain [1]) | CC50 at 1 day [2] [nM] | Mean (PFU/g lung) (RSV A2 virus strain [3]) | effect on viral titer in lung tissue (in words) (RSV A2 virus strain [3]) | EC50 (nM), plaque reduction, hMPV A2, Vero cells [4] [nM] | EC50 (nM), plaque reduction, hMPV B1, Vero cells [5] [nM] | IC50/nM, Cell fusion inhibition activity (plaque reduction, RSV A long strain, HEp-2 cells) [6] [nM] | EC50 (nM), plaque reduction, hPIV3 C243, LLC-MK2 cells [7] [nM] | Kd [8] [nM]
CC[C@H](C)[C@H](NC(=O)[C@H](CCCCN)NC(=O)[C@H](CCCCN)NC(=O)[C@H](CC(C)C)NC(=O)[C@H](CO)NC(=O)[C@H](CCC(=O)O)NC(=O)[C@H](CCC(=O)O)NC(=O)[C@@H](NC(=O)[C@H](CCCCN)NC(=O)[C@H](CCCCN)NC(=O)[C@H](CC(N)=O)NC(=O)[C@@H](NC(=O)[C@H](CCC(=O)O)NC(=O)[C@H](CCC(=O)O)NC(=O)[C@@H](NC(=O)[C@H](CCCCN)NC(=O)[C@H](CCCCN)NC(=O)[C@H](CC(=O)O)NC(=O)[C@H](Cc1ccccc1)NC(=O)[C@H](CCC(=O)O)NC(=O)C(CC(=O)O)NC(C)=O)[C@@H](C)CC)C(C)C)[C@@H](C)CC)C(=O)N[C@@H](CCC(=O)O)C(=O)N[C@@H](CCC(=O)O)C(=O)N[C@@H](CO)C(=O)N[C@@H](CC(=O)O)C(=O)N[C@@H](CCCCN)C(=O)N[C@@H](CCCCN)C(=O)N[C@@H](CC(C)C)C(=O)N[C@@H](CCC(=O)O)C(=O)N[C@@H](CCC(=O)O)C(=O)N[C@H](C(=O)N[C@@H](CC(N)=O)C(=O)N[C@@H](CCC(=O)O)C(=O)N[C@@H](C)C(=O)N[C@@H](C)C(=O)N[C@@H](C)C(=O)N[C@@H](CCCCN)C(=O)N[C@@H](CCCCNC(=O)CCC(=O)O[C@H]1CC[C@@]2(C)C(=CC[C@H]3[C@@H]4CC[C@H]([C@H](C)CCCC(C)C)[C@@]4(C)CC[C@@H]32)C1)C(N)=O)C(C)C (stereo partly drawn) [Compound 14] (Ac-[ξD]EFDKKIEEVNKKIEESLKKIEESDKKLEEVNEAAAKK(Succinyl(4-O-cholesteryl))-NH2) | 7.68 Log10 copy number/gram of lung | significantly reduce the viral titer in lung tissue | 9600 | 4820 | significantly reduce the viral titer in lung tissue |  |  |  |  | 
CC[C@H](C)[C@H](NC(=O)[C@H](CCCCN)NC(=O)[C@H](CCCCN)NC(=O)[C@H](CC(C)C)NC(=O)[C@H](CO)NC(=O)[C@H](CCC(=O)O)NC(=O)[C@H](CCC(=O)O)NC(=O)[C@@H](NC(=O)[C@H](CCCCN)NC(=O)[C@H](CCCCN)NC(=O)[C@H](CC(N)=O)NC(=O)[C@@H](NC(=O)[C@H](CCC(=O)O)NC(=O)[C@H](CCC(=O)O)NC(=O)[C@@H](NC(=O)[C@H](CCCCN)NC(=O)[C@H](CCCCN)NC(=O)[C@H](CC(=O)O)NC(=O)[C@H](Cc1ccccc1)NC(=O)[C@H](CCC(=O)O)NC(=O)C(CC(=O)O)NC(C)=O)[C@@H](C)CC)C(C)C)[C@@H](C)CC)C(=O)N[C@@H](CCC(=O)O)C(=O)N[C@@H](CCC(=O)O)C(=O)N[C@@H](CO)C(=O)N[C@@H](CC(=O)O)C(=O)N[C@@H](CCCCN)C(=O)N[C@@H](CCCCN)C(=O)N[C@@H](CC(C)C)C(=O)N[C@@H](CCC(=O)O)C(=O)N[C@@H](C)C(=O)N[C@@H](C)C(=O)N[C@@H](C)C(=O)N[C@@H](CCCCN)C(=O)N[C@@H](CCCCNC(=O)CCC(=O)O[C@H]1CC[C@@]2(C)C(=CC[C@H]3[C@@H]4CC[C@H]([C@H](C)CCCC(C)C)[C@@]4(C)CC[C@@H]32)C1)C(N)=O (stereo partly drawn) [Compound 17] (Ac-[ξD]EFDKKIEEVNKKIEESLKKIEESDKKLEAAAKK(Succinyl(4-O-cholesteryl))-NH2) | 8.42 Log10 copy number/gram of lung | significantly reduce the viral titer in lung tissue | 26400 | 7885 | significantly reduce the viral titer in lung tissue |  |  |  |  | 
WDEFDKKIEEVNKKIEESLKKIEESDKKLEEVNAEAAAKK (modifications not checked) [Compound 40] |  |  |  |  |  | 13.8 | 7.47 | 11.7 | 22.2 | 2270
WDEFDKKIEEVNKKIEESLKKIEESDKKLEEVNEAAAKK (modifications not checked) [Compound 41] |  |  |  |  |  | 11.7 | 9.46 | 14.8 | 71.1 | 492
FDASIEEVNRRIEESLRRIEESDRRLEEVNAEAAAKK (modifications not checked) [Compound 42] |  |  |  |  |  | 26.1 | 10.1 | 11.8 | 18.9 | 485
WDEFDASIEEVNRRIEESLRRIEESDRRLEEVEAAAKK (modifications not checked) [Compound 43] |  |  |  |  |  | 16.8 | 8.01 | 18.3 | 16.1 | 5720
